From patent US20220177594A1 (ZOETIS SERVICES, published 2022)
Changes are numbered by the printed parent chain.

B1: Mu_19F07_VH (SEQ ID NO: 47)_Y33A (antibody, V domains shown)
VH: EVKLVESEGGLVQPGSSMKLSCTASGFTFSDYAMAWVRQVPEKGLEWVANINYDGSSTYYLDSLKSRFIISRDNAKNILYLQMSSLKSEDTATYYCARGLTWDFDVWGTGTTVTVSS
VL: DIVMTQSHKFMSPSVGDRVSITCKASQDVDTAVAWYQQKPGQSPKLLIYLASTRHTGVPDRFTGSGSGTDFTLTISNVQSEDLADYFCQQYSRFPLTFGAGTKLELKR
B2: Mu_19F07_VL (SEQ ID NO: 49)_Q90A (antibody, V domains shown)
VH: B1 VH with A33Y
VL: B1 VL with Q90A
B3: Mu_19F07_VL (SEQ ID NO: 49)_T53A (antibody, V domains shown)
VH: B1 VH with A33Y
VL: B1 VL with T53A
B4: Mu_19F07_VH (SEQ ID NO: 47)_Y60A (antibody, V domains shown)
VH: B1 VH with A33Y, Y60A
VL: B1 VL
B5: Mu_19F07_VH (SEQ ID NO: 47)_S56A (antibody, V domains shown)
VH: B1 VH with A33Y, S56A
VL: B1 VL
B6: Mu_19F07_VH (SEQ ID NO: 47)_Y59A (antibody, V domains shown)
VH: B1 VH with A33Y, Y59A
VL: B1 VL
B7: Mu_19F07_VL (SEQ ID NO: 49)_L50A (antibody, V domains shown)
VH: B1 VH with A33Y
VL: B1 VL with L50A
B8: Mu_19F07_VH (SEQ ID NO: 47)_W102A (antibody, V domains shown)
VH: B1 VH with A33Y, W102A
VL: B1 VL
B9: Mu_19F07_VL (SEQ ID NO: 49)_Q89A (antibody, V domains shown)
VH: B1 VH with A33Y
VL: B1 VL with Q89A
B10: Mu_19F07_VL (SEQ ID NO: 49)_F94A (antibody, V domains shown)
VH: B1 VH with A33Y
VL: B1 VL with F94A
B11: Mu_19F07_VH (SEQ ID NO: 47)_F104A (antibody, V domains shown)
VH: B1 VH with A33Y, F104A
VL: B1 VL
B12: Mu_09E09_VH (SEQ ID NO: 35)_Y57A (antibody, V domains shown)
VH: DVKLVESGEGLVKPGGSLKLSCAASGFTFSSYAMSWVRQTPEKRLEWVAYISSGGDAIYYADTVKGRFTISRDNARNTLYLQMSSLKSEDTAMYYCTRDPITGTFAYWGQGTLVTVSA
VL: DLQMTQTTSSLSASLGDRVTISCRASQDINNYLNWYQQKPDGTVKLLIYYTSTLHSGVPSRFSGSGSGTDYSLTISNLEQEDIATYFCQQGNTLPWTFGGGTKLEIKR
B13: Mu_09E09_VL (SEQ ID NO: 37)_G91A (antibody, V domains shown)
VH: B12 VH with A57Y
VL: B12 VL with G91A
B14: Mu_09E09_VH (SEQ ID NO: 35)_T102A (antibody, V domains shown)
VH: B12 VH with A57Y, T102A
VL: B12 VL
B15: Mu_09E09_VH (SEQ ID NO: 35)_P100A (antibody, V domains shown)
VH: B12 VH with A57Y, P100A
VL: B12 VL
B16: Mu_09E09_VL (SEQ ID NO: 37)_Q90A (antibody, V domains shown)
VH: B12 VH with A57Y
VL: B12 VL with Q90A
B17: Mu_10F07_VL (SEQ ID NO: 41)_Y50A (antibody, V domains shown)
VH: B12 VH with A49T, A57Y, I58F
VL: B12 VL with L2I, N30T, Y50A, Y71F, N92H, T93M
B18: Mu_10F07_VL (SEQ ID NO: 41)_T53A (antibody, V domains shown)
VH: B12 VH with A49T, A57Y, I58F
VL: B12 VL with L2I, N30T, T53A, Y71F, N92H, T93M
B19: Mu_09E09_VL (SEQ ID NO: 37)_W96A (antibody, V domains shown)
VH: B12 VH with A57Y
VL: B12 VL with W96A
B20: Mu_09E09_VL (SEQ ID NO: 37)_L94A (antibody, V domains shown)
VH: B12 VH with A57Y
VL: B12 VL with L94A
B21: Mu_10F07_VH (SEQ ID NO: 39)_D99A (antibody, V domains shown)
VH: B12 VH with A49T, A57Y, I58F, D99A
VL: B12 VL with L2I, N30T, Y71F, N92H, T93M
B22: Mu_10F07_VL (SEQ ID NO: 41)_W96A (antibody, V domains shown)
VH: B12 VH with A49T, A57Y, I58F
VL: B12 VL with L2I, N30T, Y71F, N92H, T93M, W96A
B23: Mu_09E09_VH (SEQ ID NO: 35)_Y59A (antibody, V domains shown)
VH: B12 VH with A57Y, Y59A
VL: B12 VL
B24: Mu_10F07_VL (SEQ ID NO: 41)_L33A (antibody, V domains shown)
VH: B12 VH with A49T, A57Y, I58F
VL: B12 VL with L2I, N30T, L33A, Y71F, N92H, T93M
B25: Mu_10F07_VH (SEQ ID NO: 39)_I101A (antibody, V domains shown)
VH: B12 VH with A49T, A57Y, I58F, I101A
VL: B12 VL with L2I, N30T, Y71F, N92H, T93M
B26: Mu_09E09_VL (SEQ ID NO: 37)_N92A (antibody, V domains shown)
VH: B12 VH with A57Y
VL: B12 VL with N92A
B27: Mu_09E09_VL (SEQ ID NO: 37)_Y32A (antibody, V domains shown)
VH: B12 VH with A57Y
VL: B12 VL with Y32A
B28: Mu_09E09_VH (SEQ ID NO: 35)_D99A (antibody, V domains shown)
VH: B12 VH with A57Y, D99A
VL: B12 VL
B29: Mu_09E09_VL (SEQ ID NO: 37)_N34A (antibody, V domains shown)
VH: B12 VH with A57Y
VL: B12 VL with N34A
B30: Mu_09E09_VH (SEQ ID NO: 35)_F105A (antibody, V domains shown)
VH: B12 VH with A57Y, F105A
VL: B12 VL
B31: Mu_09E09_VH (SEQ ID NO: 35)_I101A (antibody, V domains shown)
VH: B12 VH with A57Y, I101A
VL: B12 VL
B32: Mu_10F07_VH (SEQ ID NO: 39)_Y107A (antibody, V domains shown)
VH: B12 VH with A49T, A57Y, I58F, Y107A
VL: B12 VL with L2I, N30T, Y71F, N92H, T93M
B33: Mu_09E09_VL (SEQ ID NO: 37)_Y50A (antibody, V domains shown)
VH: B12 VH with A57Y
VL: B12 VL with Y50A
B34: Mu_10F07_VL (SEQ ID NO: 41)_T97A (antibody, V domains shown)
VH: B12 VH with A49T, A57Y, I58F
VL: B12 VL with L2I, N30T, Y71F, N92H, T93M, T97A

These binders were tested against T1, ANTIBODY EXPRESSION CONTROL (assay: SPR Biacore, expression control).
T1 construct: also called mouse anti-canine antibody (capture reagent of the expression control ELISA)
Experimental: The affinity with which candidate mAbs bind canine, feline, and human (SEQ ID NO: 122; Human_OSMR) (R&D Systems, Minneapolis, Minn.) OSMR was determined using surface plasmon resonance (SPR) on a Biacore system (Biacore Life Sciences (GE Healthcare), Uppsala, Sweden). To avoid affinity differences associated with differential surface preparation that can occur when immobilizing antibodies to surfaces; OSMR from each species was directly conjugated to individual surfaces. Immobilization was obtained by amine coupling 5 μg/mL OSMR using N-hydroxysuccinimide (NHS)/1-Ethyl-3-(3-dimethylaminopropyl) carbodiimide (EDC) chemistry. Chips were quenched with ethanolamine and the affinity with which all candidate mAbs bound to the immobilized OSMR was evaluated. All curves were fit to a 1:1 model. […] Results for affinity measurements are described herein.
Data from an ELISA represents an equilibrium state where the antibody is allowed to associate and dissociate over a one-hour period resulting in steady-state binding. Using Biacore, the target protein is immobilized to a surface and the antibody is passed over this surface in a mobile liquid phase. Protein-protein interaction is determined from changes in the surface resonance which allows for calculation of association (kₐ), disassociation (kd), and affinity constant (KD). While not wishing to be bound to one hypothesis we present data from ELISA and Biacore experiments, using the same preparation of antibody, that may result in agreement between the two methods with respect to binding but also may show contradictory results due to the nature of the binding kinetics and different assay dynamics. The data presented in Table A (in combination with experimental results from yeast display mutational analysis in Example 21) allow for the definition of a structure:function relationship to be defined between the anti-OSMR antibodies described here and their ability to bind and block IL-31 and OSM-mediated signaling through the OSMR receptor.

| Kd | koff | kon | Binder |
| --- | --- | --- | --- |
| 0.202 nM | 6.08e-05 s⁻¹ | 301000 M⁻¹ s⁻¹ | B1 |
| 0.161 nM | 5.29e-05 s⁻¹ | 329000 M⁻¹ s⁻¹ | B2 |
| 0.123 nM | 3.75e-05 s⁻¹ | 305000 M⁻¹ s⁻¹ | B3 |
| 4.06 nM | 0.00061 s⁻¹ | 150000 M⁻¹ s⁻¹ | B4 |
| 4.08 nM | 0.000646 s⁻¹ | 159000 M⁻¹ s⁻¹ | B5 |
| 0.359 nM | 0.000116 s⁻¹ | 324000 M⁻¹ s⁻¹ | B6 |
| 0.164 nM | 4.8e-05 s⁻¹ | 293000 M⁻¹ s⁻¹ | B7 |
| 0.139 nM | 4.35e-05 s⁻¹ | 312000 M⁻¹ s⁻¹ | B8 |
| 0.135 nM | 4.3e-05 s⁻¹ | 319000 M⁻¹ s⁻¹ | B9 |
| 0.16 nM | 5.35e-05 s⁻¹ | 335000 M⁻¹ s⁻¹ | B10 |
| 0.156 nM | 5.09e-05 s⁻¹ | 326000 M⁻¹ s⁻¹ | B11 |
| 0.208 nM | 6.34e-05 s⁻¹ | 305000 M⁻¹ s⁻¹ | B12 |
| 0.306 nM | 8.96e-05 s⁻¹ | 292000 M⁻¹ s⁻¹ | B13 |
| 0.172 nM | 5.33e-05 s⁻¹ | 311000 M⁻¹ s⁻¹ | B14 |
| 0.0786 nM | 2.35e-05 s⁻¹ | 300000 M⁻¹ s⁻¹ | B15 |
| 0.249 nM | 7.12e-05 s⁻¹ | 286000 M⁻¹ s⁻¹ | B16 |
| 0.6 nM | 0.000105 s⁻¹ | 174000 M⁻¹ s⁻¹ | B17 |

| Kd | koff | kon | Binder |
| --- | --- | --- | --- |
| 2.07 nM | 0.000275 s⁻¹ | 132000 M⁻¹ s⁻¹ | B18 |
| 0.345 nM | 9.76e-05 s⁻¹ | 283000 M⁻¹ s⁻¹ | B19 |
| 0.25 nM | 7.63e-05 s⁻¹ | 305000 M⁻¹ s⁻¹ | B20 |
| 1.01 nM | 0.000118 s⁻¹ | 117000 M⁻¹ s⁻¹ | B21 |
| 0.884 nM | 9.49e-05 s⁻¹ | 107000 M⁻¹ s⁻¹ | B22 |
| 0.147 nM | 4.52e-05 s⁻¹ | 307000 M⁻¹ s⁻¹ | B23 |
| 0.812 nM | 8.43e-05 s⁻¹ | 104000 M⁻¹ s⁻¹ | B24 |
| 0.445 nM | 4.49e-05 s⁻¹ | 101000 M⁻¹ s⁻¹ | B25 |
| 0.257 nM | 7.59e-05 s⁻¹ | 296000 M⁻¹ s⁻¹ | B26 |
| 0.294 nM | 8.76e-05 s⁻¹ | 298000 M⁻¹ s⁻¹ | B27 |
| 0.219 nM | 6.88e-05 s⁻¹ | 314000 M⁻¹ s⁻¹ | B28 |
| 0.317 nM | 8.91e-05 s⁻¹ | 281000 M⁻¹ s⁻¹ | B29 |
| 0.138 nM | 4.66e-05 s⁻¹ | 338000 M⁻¹ s⁻¹ | B30 |
| 0.172 nM | 5.4e-05 s⁻¹ | 314000 M⁻¹ s⁻¹ | B31 |
| 0.446 nM | 4.44e-05 s⁻¹ | 99500 M⁻¹ s⁻¹ | B32 |
| 0.257 nM | 7.96e-05 s⁻¹ | 310000 M⁻¹ s⁻¹ | B33 |
| 0.805 nM | 8.07e-05 s⁻¹ | 100000 M⁻¹ s⁻¹ | B34 |
